In patent US20170362324A1 (Biogen, published 2017):
Numbering of substitutions follows the chain as printed. Names may count otherwise.

B1: VH0/VL0 Agly-hIgG1(T299A) (antibody, V domains shown)
VH: EVQLVESGGGLVKPGGSLRLSCAASGYTFTSYWMHWVRQAPGKGLEWVGAIYPGNSDTSYNQKFKGRFTISRDDSKNTLYLQMNSLKTEDTAVYYCTTTTYGYDWFAYWGQGTLVTVSS
VL: DIQMTQSPSSVSASVGDRVTITCKSSQSVLYSSNQKNYLAWYQQKPGKAPKLLIYWASTRESGVPSRFSGSGSGTDFTLTISSLQPEDFATYYCHQYLSSLTFGQGTKVEIK
notes: also called H0/L0
B2: VH4/VL1 Agly-hIgG1(T299A) (antibody, V domains shown)
VH: B1 VH with L4V, E6Q, G16E, A23K, R38K, R67K, R72A, D74T, K76P, L79A
VL: B1 VL with V11L, I21M, S66D, V109L
notes: also called H4/L1
B3: VH5/VL1 Agly-hIgG1(T299A) (antibody, V domains shown)
VH: EVQVQQSGGGLVKPGGSLRLSCKASGYTFTSYWMHWVKQAPGKGLEWVGAIYPGNSDTSYNQKFKGKATLSAVTSPNTAYLQMNSLKTEDTAVYYCTTTTYGYDWFAYWGQGTLVTVSS
VL: B1 VL with V11L, I21M, S66D, V109L
notes: also called H5/L1
B4: VH5/VL0 Agly-hIgG1(T299A) (antibody, V domains shown)
VH: B3 VH
VL: B1 VL
notes: also called H5/L0
B5: VH4/VL0 Agly-hIgG1(T299A) (antibody, V domains shown)
VH: B3 VH with Q5V, G16E, A68F, L70I, V73D
VL: B1 VL
notes: also called H4/L0 (Agly-IgG1)
B6: VH4/VL2 Agly-hIgG1(T299A) (antibody, V domains shown)
VH: B3 VH with Q5V, G16E, A68F, L70I, V73D
VL: B1 VL with D1N, V11L, I21M, T22S, A49S, S66D, S69T, V109L
notes: also called H4/L2 (Agly-IgG1)
B7: VH2/VL0 Agly-hIgG1(T299A) (antibody, V domains shown)
VH: B3 VH with Q5V, G16E, K23A, A68F, L70I, V73D, P76S
VL: B1 VL
notes: also called H2/L0
B8: VH5/VL2 Agly-hIgG1(T299A) (antibody, V domains shown)
VH: B3 VH
VL: B1 VL with D1N, V11L, I21M, T22S, A49S, S66D, S69T, V109L
notes: also called H5/L2 (Agly-IgG1)
B9: VH2/VL2 Agly-hIgG1(T299A) (antibody, V domains shown)
VH: B3 VH with Q5V, G16E, K23A, A68F, L70I, V73D, P76S
VL: B1 VL with D1N, V11L, I21M, T22S, A49S, S66D, S69T, V109L
notes: also called H2/L2 (Agly-IgG1)
B10: VH3/VL2 Agly-hIgG1(T299A) (antibody, V domains shown)
VH: B3 VH with Q5V, Q6E, A68F, P76S
VL: B1 VL with D1N, V11L, I21M, T22S, A49S, S66D, S69T, V109L
notes: also called H3/L2
B11: VH0/VL1 Agly-hIgG1(T299A) (antibody, V domains shown)
VH: B1 VH
VL: B1 VL with V11L, I21M, S66D, V109L
notes: also called H0/L1
B12: VH4/VL0 Fab fragment (Fab, V domains shown)
VH: B3 VH with Q5V, G16E, A68F, L70I, V73D
VL: B1 VL
notes: also called H4/L0 (Fab source); H4L0 hIgG1 Fab
B13: VH5/VL2 Fab fragment (Fab, V domains shown)
VH: B3 VH
VL: B1 VL with D1N, V11L, I21M, T22S, A49S, S66D, S69T, V109L
notes: also called H5/L2 (Fab source); H5L2 hIgG1 Fab
B14: VH2/VL2 Fab fragment (Fab, V domains shown)
VH: B3 VH with Q5V, G16E, K23A, A68F, L70I, V73D, P76S
VL: B1 VL with D1N, V11L, I21M, T22S, A49S, S66D, S69T, V109L
notes: also called H2/L2 (Fab source); H2L2 hIgG1 Fab
B15: Mouse chimeric ALULA Fab fragment (Fab, V domains shown)
VH: EVQVQQSGTVLARPGASVKMSCKASGYTFTSYWMHWVKQRPGQGLEWIGAIYPGNSDTSYNQKFKGKAKLTAVTSPNTAYMELSSLTNEDSAVYYCTTTTYGYDWFAYWGQGTLVTVSA
VL: NIMMTQSPSSLTVSAGEKVTMSCKSSQSVLYSSNQKNYLAWYQQKPGQSPKLLIYWASTRESGVPDRFTGSGSGTDFTLTISSVQAEDLAVYYCHQYLSSLTFGAGTKLELK
notes: also called Mouse chimeric ALULA (Fab source)

Each binder was assayed against T1, human αvβ5 expressed on BaF3 cells (stably transfected with human αv and β5 subunits) (human, UniProt P06756 31-1048; P18084 24-799) (assay: cell-based or functional assay).
T1 sequence (P06756 31-1048 limits assumed, chain 1 of 2): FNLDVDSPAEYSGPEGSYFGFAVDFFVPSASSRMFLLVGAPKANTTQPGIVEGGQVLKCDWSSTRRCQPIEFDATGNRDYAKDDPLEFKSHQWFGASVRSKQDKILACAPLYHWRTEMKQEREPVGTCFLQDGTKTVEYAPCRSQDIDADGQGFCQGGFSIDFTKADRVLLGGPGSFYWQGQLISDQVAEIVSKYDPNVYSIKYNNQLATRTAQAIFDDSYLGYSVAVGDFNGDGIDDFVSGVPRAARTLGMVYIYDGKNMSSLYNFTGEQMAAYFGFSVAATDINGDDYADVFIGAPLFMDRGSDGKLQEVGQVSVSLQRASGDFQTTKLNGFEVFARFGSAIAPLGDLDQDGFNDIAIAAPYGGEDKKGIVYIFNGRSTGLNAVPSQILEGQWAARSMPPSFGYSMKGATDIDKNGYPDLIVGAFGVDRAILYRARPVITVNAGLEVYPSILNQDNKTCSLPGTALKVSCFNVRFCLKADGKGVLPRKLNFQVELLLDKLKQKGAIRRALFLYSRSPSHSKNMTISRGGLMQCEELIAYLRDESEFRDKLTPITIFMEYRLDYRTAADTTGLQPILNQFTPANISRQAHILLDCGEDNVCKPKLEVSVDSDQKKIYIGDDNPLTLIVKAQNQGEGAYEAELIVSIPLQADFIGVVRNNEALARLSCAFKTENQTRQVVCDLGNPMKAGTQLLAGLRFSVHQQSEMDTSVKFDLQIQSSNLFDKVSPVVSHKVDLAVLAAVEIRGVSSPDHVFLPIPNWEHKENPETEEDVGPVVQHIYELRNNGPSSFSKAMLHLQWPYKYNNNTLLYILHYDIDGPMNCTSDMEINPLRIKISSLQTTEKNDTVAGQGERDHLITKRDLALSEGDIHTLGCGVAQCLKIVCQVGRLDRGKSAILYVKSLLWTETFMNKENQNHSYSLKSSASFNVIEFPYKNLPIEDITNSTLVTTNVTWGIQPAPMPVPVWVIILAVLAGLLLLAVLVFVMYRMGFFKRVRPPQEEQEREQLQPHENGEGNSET
T1 sequence (P18084 24-799 limits assumed, chain 2 of 2): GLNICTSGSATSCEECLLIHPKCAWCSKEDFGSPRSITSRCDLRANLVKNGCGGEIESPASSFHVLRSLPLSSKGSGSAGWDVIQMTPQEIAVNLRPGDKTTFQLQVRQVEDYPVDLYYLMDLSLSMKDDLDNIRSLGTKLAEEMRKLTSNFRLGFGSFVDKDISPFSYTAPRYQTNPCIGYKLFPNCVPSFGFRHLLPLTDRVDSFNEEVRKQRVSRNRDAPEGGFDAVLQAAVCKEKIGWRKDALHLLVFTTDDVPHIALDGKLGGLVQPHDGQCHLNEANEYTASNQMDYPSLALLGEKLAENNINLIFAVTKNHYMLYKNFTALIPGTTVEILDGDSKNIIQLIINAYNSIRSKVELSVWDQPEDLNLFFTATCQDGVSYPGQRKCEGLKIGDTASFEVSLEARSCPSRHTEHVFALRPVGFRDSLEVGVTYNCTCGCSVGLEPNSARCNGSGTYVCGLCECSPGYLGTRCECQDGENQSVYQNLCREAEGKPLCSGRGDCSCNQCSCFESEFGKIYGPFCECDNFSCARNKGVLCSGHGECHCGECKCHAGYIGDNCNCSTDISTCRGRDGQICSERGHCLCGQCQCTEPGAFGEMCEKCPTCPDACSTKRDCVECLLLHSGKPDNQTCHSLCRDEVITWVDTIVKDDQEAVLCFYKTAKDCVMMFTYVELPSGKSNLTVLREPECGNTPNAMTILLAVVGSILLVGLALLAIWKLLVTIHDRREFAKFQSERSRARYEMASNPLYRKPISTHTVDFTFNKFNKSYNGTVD
For B1, the “VN adhesion inhibition, αvβ5-BaF3 (IC50, nM)” value (from here on “VN adhesion inhibition”) was 3 nM.
In the case of B2, the “VN adhesion inhibition” value is reported as 1 nM.
With B3 the “VN adhesion inhibition” value was 0.7 nM.
For B4, the “VN adhesion inhibition” value was 1 nM.
For B5, the “VN adhesion inhibition” value was 1.1 nM.
For B6, the “VN adhesion inhibition” value was 0.5 nM.
For B7, the “VN adhesion inhibition” value was 1.3 nM.
For B8, the “VN adhesion inhibition” value was 0.9 nM.
With B9 the “VN adhesion inhibition” value was 0.4 nM.
B10 was tested, and the “VN adhesion inhibition” value was 0.6 nM.
For B11, the “VN adhesion inhibition” value was 2.2 nM.

Target: T1, human αvβ5 expressed on BaF3 cells …
Assay: cell-based or functional assay
Remark: another data set of the same source
In the case of B1, the “VN adhesion inhibition” value is reported as 1770 nM.
B2 was tested, and the “VN adhesion inhibition” value was 59.8 nM.
B3 was tested, and the “VN adhesion inhibition” value was 163 nM.
In the case of B4, the “VN adhesion inhibition” value is reported as 218 nM.
With B5 the “VN adhesion inhibition” value was 74.9 nM.
In the case of B6, the “VN adhesion inhibition” value is reported as 71.8 nM.
B7 was tested, and the “VN adhesion inhibition” value was 476 nM.
With B8 the “VN adhesion inhibition” value was 83.2 nM.
In the case of B9, the “VN adhesion inhibition” value is reported as 292 nM.
With B10 the “VN adhesion inhibition” value was 124 nM.
B11 was tested, and the “VN adhesion inhibition” value was 1620 nM.

The binders below were run against T1, human αvβ5 expressed on BaF3 cells … (assay: FACS on αvβ5-BaF3 cells, unpurified antibody).
Procedure: FACS Binding Assay: Cells were washed one time in PBS, and then resuspended in FACS buffer (1×PBS, 1% BSA, 1 mM CaCl₂, and 1 mM MgCl₂). 1×10⁶ cells were then incubated on ice for 1 hr in FACS buffer containing the test antibody in a total volume of 50 μl. After incubation, the cells were washed two times with ice cold FACS buffer, resuspended in 50 μl of FACS buffer containing 3 μg/ml goat anti-mouse IgG AlexaFluor488 (Jackson ImmunoResearch), and incubated on ice for 30 min. The cells were then washed twice with ice cold FACS buffer and fixed in 1% PFA overnight. Cell aggregates were removed by filtering through 40 μm filter plates (Millipore) and binding of the labeled secondary antibody was monitored by flow cytometry using a FACS Calibur (BD Biosciences).
(§1) Screening of all combinations of heavy chain versions VH0, VH1, VH2, VH3, VH4, or VH5, with light chains VL0, VL1, VL2, or VL3 was carried out using unpurified proteins in conditioned cell media. The binding of each construct to biotin-conjugated human αvβ5 protein was determined using a solid-phase binding assay (ELISA) and by FACS, and the ability of each construct to block ligand binding was determined using a vitronectin cell adhesion assay (Table 1).
B1 showed an EC50 of 1120 nM.
Binder B2 has an EC50 of 126 nM.
Binder B3 has an EC50 of 147 nM.
B4 gave an EC50 of 244 nM.
B5 showed an EC50 of 158 nM.
B6 gave an EC50 of 156 nM.
B7 was tested, and the EC50 was 354 nM.
With B8 the EC50 was 359 nM.
Work on B9 yielded an EC50 of 646 nM.
Work on B10 yielded an EC50 of 3310 nM.
Work on B11 yielded an EC50 of 798 nM.

These binders were tested against T2, human soluble αvβ5 protein (extracellular domains of human αv and β5 integrin subunits) (human, UniProt P06756 31-992; P18084 24-719) (assay: ELISA, inhibition of soluble αvβ5 binding to coated human plasma vitronectin).
T2 construct: also called biotin-αvβ5; hsαvβ5
T2 sequence (P06756 31-992 limits assumed, chain 1 of 2): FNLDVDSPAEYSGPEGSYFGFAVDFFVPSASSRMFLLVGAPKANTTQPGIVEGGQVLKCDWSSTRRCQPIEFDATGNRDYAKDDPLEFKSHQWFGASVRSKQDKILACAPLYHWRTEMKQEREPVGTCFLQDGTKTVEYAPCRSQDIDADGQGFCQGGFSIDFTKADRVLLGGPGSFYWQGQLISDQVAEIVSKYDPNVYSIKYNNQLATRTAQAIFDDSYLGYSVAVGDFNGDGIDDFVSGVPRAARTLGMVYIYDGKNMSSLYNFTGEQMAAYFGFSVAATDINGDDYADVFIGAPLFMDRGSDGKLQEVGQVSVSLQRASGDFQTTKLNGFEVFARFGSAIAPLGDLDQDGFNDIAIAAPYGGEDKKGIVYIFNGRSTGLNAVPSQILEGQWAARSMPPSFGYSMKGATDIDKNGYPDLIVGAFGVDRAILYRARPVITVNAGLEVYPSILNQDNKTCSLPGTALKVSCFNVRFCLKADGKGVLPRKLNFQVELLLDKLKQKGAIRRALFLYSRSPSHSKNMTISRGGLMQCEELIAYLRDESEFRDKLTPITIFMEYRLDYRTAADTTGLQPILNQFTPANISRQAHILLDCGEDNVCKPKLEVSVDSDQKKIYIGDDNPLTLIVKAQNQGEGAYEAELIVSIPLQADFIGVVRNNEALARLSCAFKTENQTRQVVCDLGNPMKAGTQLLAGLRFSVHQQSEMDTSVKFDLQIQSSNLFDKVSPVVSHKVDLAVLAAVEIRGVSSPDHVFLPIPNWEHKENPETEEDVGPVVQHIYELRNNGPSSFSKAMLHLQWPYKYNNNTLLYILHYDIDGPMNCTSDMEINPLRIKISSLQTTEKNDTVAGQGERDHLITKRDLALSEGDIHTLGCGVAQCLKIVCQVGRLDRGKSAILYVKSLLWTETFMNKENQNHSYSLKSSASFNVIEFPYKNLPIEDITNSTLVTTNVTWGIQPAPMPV
T2 sequence (P18084 24-719 limits assumed, chain 2 of 2): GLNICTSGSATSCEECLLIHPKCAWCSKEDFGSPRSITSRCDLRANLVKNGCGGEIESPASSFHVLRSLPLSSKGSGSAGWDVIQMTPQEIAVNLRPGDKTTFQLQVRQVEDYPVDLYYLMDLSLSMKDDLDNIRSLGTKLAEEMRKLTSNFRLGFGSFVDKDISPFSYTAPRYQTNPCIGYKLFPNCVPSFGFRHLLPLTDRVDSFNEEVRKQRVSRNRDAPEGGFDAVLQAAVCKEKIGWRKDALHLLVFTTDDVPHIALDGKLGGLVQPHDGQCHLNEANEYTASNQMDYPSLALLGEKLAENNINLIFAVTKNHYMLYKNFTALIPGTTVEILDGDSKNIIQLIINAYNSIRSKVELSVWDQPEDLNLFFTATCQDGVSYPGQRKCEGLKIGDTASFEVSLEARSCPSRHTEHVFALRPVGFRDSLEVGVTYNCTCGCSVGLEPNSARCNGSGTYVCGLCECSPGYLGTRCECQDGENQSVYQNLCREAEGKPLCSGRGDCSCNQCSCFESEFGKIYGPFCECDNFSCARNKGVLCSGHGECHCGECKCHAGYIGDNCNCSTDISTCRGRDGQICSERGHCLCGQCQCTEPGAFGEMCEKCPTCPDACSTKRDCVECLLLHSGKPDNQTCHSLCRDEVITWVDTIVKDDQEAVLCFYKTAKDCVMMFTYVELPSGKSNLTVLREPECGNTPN
Procedure: Vitronectin Inhibition ELISA: 96-well microtiter plates were coated with 5 μg/ml purified human plasma vitronectin diluted in PBS (50 μl/well) at 4° C. overnight. After the coating solution was removed, the plates were blocked with 300 μl/well of 1% BSA/TBS at 25° C. for 1 hr. The plate was washed with wash buffer (0.05% Tween-20 in TBS containing 1 mM CaCl₂ and 1 mM MgCl₂), and dilutions of humanized antibodies mixed with 1 nM soluble αvβ5 protein in TBS containing 1% BSA, 1 mM CaCl₂ and 1 mM MgCl₂ were added (50 μl/well) and incubated at 25° C. for 1 hr. The plate was washed 4 times with wash buffer in an automated plate washer and incubated sequentially with 50 μl/well of the anti-beta5 monoclonal antibody 15F11 (at 0.5 ug/mL) in for 1 hr at 25° C. in TBS containing 1% BSA, 1 mM CaCl₂ and 1 mM MgCl₂. After washing the plate 4 times with wash buffer, 100 μl/well of a 1:5000 dilution of a peroxidase-conjugated goat anti-mouse antibody in TBS containing 1% BSA, 1 mM CaCl₂ and 1 mM MgCl₂ were added and incubated for 1 hr at 25° C. Bound protein was detected using the TMB substrate and indicated by the absorbency measured at 450 nm.
In parallel, the humanized ALULA antibodies were tested in two adhesion assays. One measured the ability of each antibody to inhibit the binding of soluble αvβ5 to purified human plasma vitronectin. In the other assay, the murine BaF3 cell line was stably transfected with human αv and β5 subunits, and the adhesion of these cells to vitronectin was determined using a fluorescence endpoint.
With B1 the IC50 was 11.1 nM.
B2 was tested, and the IC50 was 0.9 nM.
In the case of B3, the IC50 is reported as 1.3 nM.
B4 showed an IC50 of 3.1 nM.
With B5 the IC50 was 1.7 nM.
With B6 the IC50 was 0.6 nM.
B7 gave an IC50 of 2.4 nM.
With B8 the IC50 was 1.3 nM.
With B9 the IC50 was 1.1 nM.
In the case of B10, the IC50 is reported as 2.5 nM.
Work on B11 yielded an IC50 of 11.9 nM.

The binders below were run against T2, human soluble αvβ5 protein … (assay: competition ELISA against 1 nM murine ALULA on coated soluble human αvβ5).
Procedure: Competition ELISA: A 96-well microtiter plate was coated with 50 μl/well of 5 μg/mL soluble human αvβ5 protein at 4° C. overnight. The plate was washed with wash buffer (0.05% Tween-20 in PBS) four times in an automated plate washer. 300 μl/well of 1% BSA in PBS was added and incubated for 1 hr at 25° C. to block nonspecific binding. The plate was washed as above, and dilutions of humanized antibodies mixed with 1 nM murine ALULA in PBS containing 1% BSA, were added (50 μl/well). The plate was incubated for 1 hr at 25° C., washed, and then incubated for 40 minutes with 100 μl/well of […] goat anti-mouse antibody. Bound antibody was detected using 3,3′,5,5′-tetramethylbenzidine (TMB). Binding was indicated by the absorbency measured at 450 nm.
The binding of each construct to soluble, purified human αvβ5 protein was determined by a competition ELISA with murine ALULA (FIG. 4). […] The remaining constructs behaved similarly, with version H4/L2 showing the lowest IC50 value in this assay.
Binder B1 has an IC50 of 18.3 nM.
B2 gave an IC50 of 2.2 nM.
With B3 the IC50 was 3 nM.
Work on B4 yielded an IC50 of 2.8 nM.
For B5, the IC50 was 2 nM.
B6 showed an IC50 of 1.6 nM.
In the case of B7, the IC50 is reported as 3.4 nM.
For B8, the IC50 was 2 nM.
Binder B9 has an IC50 of 2.8 nM.
B10 was tested, and the IC50 was 3.3 nM.
In the case of B11, the IC50 is reported as 14.2 nM.

What follows are binders tested against T2, human soluble αvβ5 protein … (assay: ELISA, biotin-αvβ5 on streptavidin plate, unpurified antibody).
Procedure: Solid-Phase αvβ5 Binding Assay (ELISA): A 96-well microtiter plate was precoated with streptavidin (Thermo Scientific Reacti-Bind StreptAvidin Coated High Binding Capacity plate) was used. Biotinylated soluble αvβ5 protein (2 μg/mL) in TBS with 1% BSA was added to the wells, and the plate was incubated for 1 hr at 25° C. The plate was washed with wash buffer (0.05% Tween-20 in PBS), and purified humanized ALULA antibody in TBS containing 1% BSA, 1 mM CaCl2, and 1 mM MgCl2 were added (50 μl/well). The plate was incubated for 1 hr at 25° C., washed, and then incubated for 1 hr with 50 μl/well of […] goat anti-human secondary antibody. Bound antibody was detected using 3,3′,5,5′-tetramethylbenzidine (TMB). Binding was indicated by the absorbency measured at 450 nm.
as §1
Binder B1 has an EC50 of 1.2 nM.
B2 was tested, and the EC50 was 0.4 nM.
Work on B3 yielded an EC50 of 0.3 nM.
In the case of B4, the EC50 is reported as 0.4 nM.
B5 was tested, and the EC50 was 0.3 nM.
For B6, the EC50 was 0.4 nM.
B7 gave an EC50 of 0.5 nM.
Work on B8 yielded an EC50 of 0.4 nM.
Work on B9 yielded an EC50 of 0.7 nM.
B10 showed an EC50 of 0.7 nM.
With B11 the EC50 was 1.3 nM.

Each binder was assayed against T2, human soluble αvβ5 protein … (assay: ELISA, Fab blocking of 2 nM soluble αvβ5 binding to immobilized human plasma vitronectin).
Procedure: Fab fragments of the four constructs of Example 6 were generated from the corresponding IgG1(N297Q) versions by digestion with papain. The ability of each Fab to block 2 nM soluble αvβ5 binding to immobilized human plasma vitronectin was determined by ELISA.
In the case of B12, the “Fold change (IC50 against mouse chimeric ALULA)” value (from here on “Fold change”) is reported as 1.6 fold and the IC50 is reported as 7.5 nM.
For B13, the “Fold change” value was 1.4 fold and the IC50 was 6.8 nM.
With B14 the “Fold change” value was 1.5 fold and the IC50 was 7.3 nM.
In the case of B15, the IC50 is reported as 4.8 nM.
